Experiment: label from the status in PepcDB records
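Also: failed if final PepcDB status was selected cloned or expressed and not failed if soluble or beyond.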

Sequence	protein production
MKTITTTKSPTVKDYIDAYLIERKYCAAPSTLASDLSRAKNINEALGEFPINAVSHTQINMLLVSWHERFRNKTINEHLTILRRISLKAVRDGVIARNPMTGVQNFKTVDPEPNPFTKKELARMHECKNVCTQGQNAVMLNLLTGLRISELIALSWQDINWEREVLYVRRACVLNIYKCPKTKGSVREVDLNPLALKLLKEQLKLTGKRRPQTINILECDNKTFTKDSVSFIFLNTKTNQPFTDAKEFTERFFIKFLEQAGVAHRGVGQLRHTFASQCLTTGISKDWLAVQMGHKSTTMIDKHYGRWIREDSPNYAREAAQHLQDIFGLPQIKPTVTLPAVPHSSLVLLKKLQSKPQLIQLLEGMLESDR	failed
MKTKIIGVLGLGIFGQTLAQELSNFEQDVIAIDSNPENVQAVAEVVTKAAIGDITDLAFLKHIGISDCDTVIIATGNSLESSVLAVMHCKKLGVPQVIAKARNLVYEEVLYEIGADLVISPERESGQNVAANLMRNKITDVFQIESDISVIEFKIPKSWVGKTVEQLNIRHKFDLNLIGIRKAKNKPVDTEVPINSPLEEGIILVAIANSDAFQRYDYLGYFNLEHHHHHH	not failed
MKTKLMTLQDATGFFRDGMTIMVGGFMGIGTPSRLVEALLESGVRDLTLIANDTAFVDTGIGPLIVNGRVRKVIASHIGTNPETGRRMISGEMDVVLVPQGTLIEQIRCGGAGLGGFLTPTGVGTVVEEGKQTLTLDGKTWLLERPLRADLALIRAHRCDTLGNLTYQLSARNFNPLIALAADITLVEPDELVETGELQPDHIVTPGAVIDHIIVSQESK	not failed
MKTKYIIASLGLATLLSFGANAAVHQVNAEQAQNLQPMGTISVSQIGSTPMDMRQEIVAKAEKAGANSYRIIELKEGDNWHATAELYKLEHHHHHH	failed
MKTLHVQTASSSYPVFIGQGIRKKACELLTSLNRPLTRIMFVTDEEVDRLYGDEMLHLLQEKWPVKKVTVPSGEQAKSMDMYTKLQSEAIRFHMDRSSCIIAFGGGVVGDLAGFVAATFMRGIDFIQMPTTLLAHDSAVGGKVAVNHPLGKNLIGAFYQPKAVLYDTDFLRSLPEKELRSGMAEVIKHAFIYDRAFLEELLNIHSLRDITNDQLNDMIFKGISIKASVVQQDEKEEGIRAYLNFGHTLGHAVEAEYGYGQITHGDAVALGMQFALYISEKTVGCEMDRKRLVSWLKSLGYPSQIRKETETSVLLNRMMNDKKTRGGKIQFIVLNELGKVADHTFSRNELESWLNKWRLEETS	failed
MKTPTSRPVVLCLSGHDPSGGAGLQADIEALLAQGCHAAPAVTALTVQDTVNVSDFRVLDREWVLAQANAVLADLPVAAVKLGMLGSLEMVDTVAEILAAHPHLPVVCDPVLRAGGGGALGKGDVGFAMRERLLPRATIATPNLPEARLLADLPEGSADQCAERLLEHCEHLLITGGHGDESEVHNRLYSRDGSRRTFTCQRLPGSYHGSGCTLASALAGRIALGEALHGAVQSALDYTWRTLRDAESPGHGQYVPRRLPTDFCH	failed
MKTRLLPVAPSAGTLPGLPDAAELAVLRAWHAGLSAREAVERYLGERRAPGQSSRGILGRIRRQLAAFARRRQREDLALLFEIAATERARQGRVADQAVELLRTLPLPEPAISDDVALWLDARAVTVLRAAGIDTLADLTVRVPRRRRWWAAIPGLGQAGARRIEAFFAEHPRLTERAKALIAEQPRGVVVPWEQLRLPHEVDGSEGQFRAPRETSVLTADNDYEAVQAWLSLHESPATQRAYRKEAERLILWAIIERGRPLSSLTTEDAIAYRGFLRRPSPHERWVGPARPRASADWRPFTDGLSARSIAYSLSVLGAMFRWLIQQRYVLANPFAGIKVRGGGRTAALDASHAFSEGEWALVRTLADGLEWSYGWEAAAAQRLRFVLDFAYATGLRASELITARLGGIETDRQSDHWLSLIGKGGRAGKVALPPLARTALDRYLVERGLPVTQARWNPQTPLIGALGLDPGGGITGSRLWSVMRRFFRVAADLIERDHTALAEKLRKASPHWMRHTHASHALARGAELTTVRDNLRHASISTTSIYLHGDDVKRARQIEAAFAAK	failed
MKTSQEELLPATRRALLHRIAVAQAEGRAPSLAAAVVRGGQTVWYGSRTSVDGHAPDENVQYRIGSITKTFTAVLVLRLRDEGVLDLGDPLEKHLPGTGAGEATIAELLAHTGGLAAESPAPWWERTPGSLRPELADVLGELPLRHPVGRRHHYSNPGYTLLGALVEELRGAPWEEVLRREVLEPLGMRRTSGDPRAPHAGGWAVHPWADVMLPEPAEDLGRMAPAGQLWSTTGDLARFAVFLAQGDERVLSADSVREMRTPAAPAEAADVMSGSAYGLGMQLQYRDGRLLVGHSGSLPGFLANLTVSVEDDLAAVVLVNCTSGPMPSAVAADLVRIVAEAEPRIPEPWRPLPDVDEGVLELAGQWYWGTQAFVLRLTVDGGVSLEPLSGVGRRARLRANGDGTWTGLDGYYAGELLKAVRRPDGSVSHLDLGSFVFTRQPYDEGAPVPGGVDPEGWRGIP	failed
MKTSVKFETIFPLTTAPLIQCITNEITCESMANALLYIDAKPIMADDPREFPQMFQQTSALVLNLGHLSQEREQSLLAASDYARQVNKLTVVDLVGYGASDIRNEVGEKLVHNQPTVVKGNLSEMRTFCQLVSHGRGVDGSPLDQSEEAIEELIQALRQQTQKFPQTVFLATGIQDVLVSQEQVIVLQNGVPELDCFTGTGDLVGALVAALLGEGNAPMTAAVAAVSYFNLCGEKAKTKSQGLADFRQNTLNQLSLLMKEKDWFEAVKGRVL	not failed
MKTTIQTITLILGLFISSLAIASPEFPTQEPMGGKTFGHSVKHVGNGIYVFRWWVYRNFFVVTDDGVIVSDPLNPKAAKLLQSEIRKITDKPVKYVVYSHNHHDHISGGNIFKAEGAKFIGHKNLLKQLKDHPSPVLPIPDIVFEDTYTLTLGNRTLELSYFGPNHGDSLVVMRFPKEKILFVVDIVTPRRVAFRGMPDFWPDEWVRSLKEIELMDVDYVISAHGPENQPAIDPASVIKEQRVYIEDLMAAVKLKMDEGVHSPDALRKQVKLPKYEHWQYYEQWLPMNIERIWAYYHMGW	failed
MKTTLLKTLTPELHLVQHNDIPVPSLKTCGWNTKNFPCKGHSLSVGXPQNAKQDVLWLSEVEPFKNGNAIRGGVPICYPWFGGVKQPAHGTARIRLWQLSHYYISVHKVRLEFELFSDLNIIEAKVSMVFTDKCHLTFTHYGEESAQAALHTYFNIGDINQVEVQGLPETCFNSLNQQQENVPSPRHISENVDCIYSAENMQNQILDKSFNRTIALHHHNASQFVLWNPWHKKTSGMSETGYQKMLCLETARIHHLLEFGESLSVEISLKG	not failed
MKTTPDILDQIRVHGADAYPEEGCGFLLGTVTDDGDNRVAALHRATNRRSEQRTRRYELTADDYRAADAAAQEQGLDVVGVYHSHPDHPARPSATDLEEATFPGFTYVIVSVRDGAPEALTAWALAPDRSEFHREDIVRPDPEAPLEHHHHHH	failed
MKTWFKYIKLLLLSVCTFLLVTGCNSNVSKLPSNQTTSNITTNCRVINHEAGKTQICGQPKKVVALSPPVLDMMLALGVQPAGYAEVDLLNSKVFDRPKEQIPYLGDRITSQPMNVGDRGNPSLESLLQLKPDLILGEASYNETEYQILNKIAPTILISHRDGITPAWQQTISIIAQALGREDKVPTVIAEYEQKLSQAKTAIAPIAQHQELLLLAFRGITLTSFTFGAETFAGGLLQDLGFKLVSPESTEYEVALEVLPKFKSDLIVIMPSGNNNIENAKRQWSQNPILQSISAHNTNRIYFIDYQLASRIRGPIAAELFVNQVRQLLS	failed
MKVDVDEKTYIITMANDITKLYEENKRNLHYSITDPLTGAYNRKYLNDRFDIFIGDYIVLIDLDNFKMINDYEGHNVGDKILCDFVSLLNKELINSTSIIRLGGDEFIVIFSSDVDKNYVYSQLEALRENFLKVFSKYKYLSFSYGVDTVKRNLKLTIVELDKKMYKNKEKLEHHHHHH	failed
MKVELTAIEARVIGCLIEKEVTTPDQYPLSLNALTNASNQKSNREPVMALSESDVLDAVDALIERRLVSDESAFNSRVSKYQHRFCNTEFGDLKLSEQEKGIICCMLLRGAQTPGEIRTRTNRLATFHDVKEVEAVLEHLASEEKGPLVVKLPREAGKRESRYMHLFCGEVDVSAMAAAVPATSSSSVRIAQLEQEVAELREELDALKAQVESLLS	not failed
MKVERRTIEYIPNEERHGKAKDLFPVWFGANMHITTLVTGTIPVAMGLNLFWSVAAIICGTLIGAIFMASHSAQGPQLGIPQMIQSRAQFGVIGAILPLFLVMFIYLGFFASSTILAAGTLSSFVPIPGSWSIIGLSAVCFLLTIFGHDLIHKMQKILSWTSFAVFFAATILIFQLPIPAGSWIPGAIDLPIFLVAVSAVATWQLAYAPYVADYSRYLPVKTPASKTFWYSYAGTSVSSIWMMLLGALLTTSLPDFTANSGSQIVQLFGPFSFIMLIIVLFGQMAINVFNLYGAFMSTTTTLEPFLKLKVTPKVRIIMILGVTLVGTVLSLLGQSNFMELFLNFIFFISYFLIPWTAINLVDYYFVRHGKYQVKAMFDVNGPYGKVNWITTIAFVLSILLEIPFINTSFYIGPLAKMFGGGDIAWIIGLAVPSVLYYVLMKPRLKKRAGYQEKLSSL	failed
MKVIICGAGQVGYGIAEQLSREDNEVSVIDTAAPLITAITETLDVRGYVGHGAHPDMLAKAGADQADMIIAVTLHDEINIVACEVAHALFSVPTKIARIRDQSYMKPEYADLFSRENMSIDVTISPEVEVGKMVLRRIAFPGATDVVRFAEDTIYMLAIECMEDCPVINTPLQQLSSLFPDLIATVVGVYRDGILKVAHSSEQLRVGDLAYVICQRQHARRTLSLFGHEEQEAQRIVIAGAGNIGHFVAHKIEEMQSKTRVKIIEADRDRAIAASEQLSHTIVMHGSALDQKILMQADIQDADLIVTLTNNDQTNILAAVIAKQLGCKSNLALLNSTSFHDVARSLGLDAYINPRAVTISRVLQHVRKGRIRSVYAVQRGSAEVIEAEALETSPLVGQSFRDIDMPDGVRIGAIYRDGVVIRPDGSTKIKAKDRVVLFASADAVRDVEQLFRVSIQYF	failed
MKVILVNGSPHKDGCTFTALEEVAKALNEEGIDTEFFHLGTKPLNGCIACGHCRKHQRCVFPDSVNEFLDLAQEADGFIFGSPVHYAAAGGAITSFLDRVFYTDSGSGKQAFYLKPAAAVVSARRAGTTASLDQLNRYFTIKEMPIISSKYWNMVHGNTPEEVRKDEEGLQIMRTLGRNMAWFLKCKEAGIRAGIPFPSQEEGLRTNFIRLEHHHHHH	not failed
MKVKDVCKLISLKPTVVEEDTPIEEIVDRILEDPVTRTVYVARDNKLVGMIPVMHLLKVSGFHFFGFIPKEELIRSSMKRLIAKNASEIMLDPVYVHMDTPLEEALKLMIDNNIQEMPVVDEKGEIVGDLNSLEILLALWKGREK	not failed
MKVKIYTRNGCPYCVWAKQWFEENNIAFDETIIDDYAQRSKFYDEMNQSGKVIFPISTVPQIFIDDEHIGGFTELKANADKILNKK	not failed
MKVKLFAIHLFFIVISFGIKYYHLQGPNLIWNMTLALIALDFAYLTSLFKKKILIGLFALAWFFFYPNTFYMLTDIIHMHFVGDVLYNKTNLILYILYVSSILFGFLSGIESFSVIMRKFRISNIFLRWGIIGIVSLVSSFGIHIGRYARLNSWDILTKPQVVINELLAVPSRDSFHFILGFTFLQVLCLIFMDYSAGKKLEK	failed
MKVLFIHPFGSNWLGTGTDITTIFNLMPPLGLLSIAAFLEARGIGTEVIDCYATPMPAETLVAEVIRRRPDVVGFSCTTSSFLEGYSIAERIKEKAPGITTVFGGAHACSVGVGLLDTFPAIDYLVIGEGEQTFFELVTNLDHGGSGIPGVGYRENGKGVISALREHIANLDDLPFPAYHRLPQFPKRYILPLFSYPKAPNTSIISSRGCPYQCSYCDRSVFSRGFRFNSPEYIVEHLKMLNRDYGIRHVFFYDDLFTTDRARVARFCELKERERLPVTYNCIARLEHVDAELLRLLKRSGCWQVNFGIESGDPEVIKKHRKFYGLDEVQRKLQLVRDTGMRVKGLFMVGLPGETEESIRRTIDYALALPLDEINVTKFTPFPGAPLYATIREQGEFDENWPLMNCLNFVFVPHGMTREQLEGLYNEFISRFYRRSRIHWGYTKMLWKSPHSVATFLRHLPEILAFELKQKW	failed
